Results on 18 molecules are retold here after patent US20240092922A1 (EUCURE BEIJING BIOPHARMA, published 2024).

First the molecules themselves.
B1: 1C4-H1K2-IgG4 (antibody, V domains shown)
VH: QVQMVQSGAEVKKPGASVKLSCKASGFTFSSSYINWLRQAPGQRLEWMGWIFAGTGGTYYNQKFTGRVTITRDTSASTAYMELSSLRSEDTAIYYCARHSPRATLFDFWGQGTTLTVSS
VL: EIVLTQSPATLSLSPGERATLSCRASSSVNHMHWYQQKPGQAPRALIYATSNLASGIPARFSGSGSGTSFTLTISSLEPEDFATYYCQQWSSNPYTFGGGTKLEIK
notes: humanized
B2: 1C4-H2K2-IgG4 (antibody, V domains shown)
VH: QVQMVQSGAEVKKPGASVKLSCKASGFTFSSSYINWLRQAPGQSLEWIGWIFAGTGGTYYNQKFTGRVQITRDTSASTAYMELSSLRSEDTAIYYCARHSPRATLFDFWGQGTTLTVSS
VL: EIVLTQSPATLSLSPGERATLSCRASSSVNHMHWYQQKPGQAPRALIYATSNLASGIPARFSGSGSGTSFTLTISSLEPEDFATYYCQQWSSNPYTFGGGTKLEIK
notes: humanized
B3: 1C4-H3K3-IgG4 (antibody, V domains shown)
VH: QVQMVQSGAEVKKPGASVKLSCKASGFTFSSSYINWLRQAPGQSLEWIGWIFAGTGGTYYNQKFTGRAQITRDTSASTAYMELSSLRSEDTAIYYCARHSPRATLFDFWGQGTTLTVSS
VL: EIVLTQSPATLSLSPGERATMSCRASSSVNHMHWYQQKPGFSPRAWIYATSNLASGIPARFSGSGSGTSFTLTISSLEPEDFATYYCQQWSSNPYTFGGGTKLEIK
notes: humanized
B4: 1C4-H4K4-IgG4 (antibody, V domains shown)
VH: QGQMVQSGAEVKKPGASVKLSCKTSGFTFSSSYINWLRQAPGQSLEWIAWIFAGTGGTYYNQKFTGRAQLTVDTSASTAYMELSSLRSEDTAIYYCARHSPRATLFDFWGQGTTLTVSS
VL: EIVLTQSPATLSASPGERVTMSCRASSSVNHMHWYQQRPGFSPRAWIYATSNLASGIPARFSGSGSGTSYSLTISSLEPEDFATYYCQQWSSNPYTFGGGTKLEIK
notes: humanized
B5: 1C4-H2K1-IgG4 (antibody, V domains shown)
VH: QVQMVQSGAEVKKPGASVKLSCKASGFTFSSSYINWLRQAPGQSLEWIGWIFAGTGGTYYNQKFTGRVQITRDTSASTAYMELSSLRSEDTAIYYCARHSPRATLFDFWGQGTTLTVSS
VL: EIVLTQSPATLSLSPGERATLSCRASSSVNHMHWYQQKPGQAPRALIYATSNLASGIPARFSGSGSGTSFTLTISSLEPEDFAVYYCQQWSSNPYTFGGGTKLEIK
notes: humanized
B6: 1C4-H1K4-IgG4 (antibody, V domains shown)
VH: QVQMVQSGAEVKKPGASVKLSCKASGFTFSSSYINWLRQAPGQRLEWMGWIFAGTGGTYYNQKFTGRVTITRDTSASTAYMELSSLRSEDTAIYYCARHSPRATLFDFWGQGTTLTVSS
VL: EIVLTQSPATLSASPGERVTMSCRASSSVNHMHWYQQRPGFSPRAWIYATSNLASGIPARFSGSGSGTSYSLTISSLEPEDFATYYCQQWSSNPYTFGGGTKLEIK
notes: humanized
B7: 1C4-H4K2-IgG4 (antibody, V domains shown)
VH: QGQMVQSGAEVKKPGASVKLSCKTSGFTFSSSYINWLRQAPGQSLEWIAWIFAGTGGTYYNQKFTGRAQLTVDTSASTAYMELSSLRSEDTAIYYCARHSPRATLFDFWGQGTTLTVSS
VL: EIVLTQSPATLSLSPGERATLSCRASSSVNHMHWYQQKPGQAPRALIYATSNLASGIPARFSGSGSGTSFTLTISSLEPEDFATYYCQQWSSNPYTFGGGTKLEIK
notes: humanized
B8: 1C4-H4K3-IgG4 (antibody, V domains shown)
VH: QGQMVQSGAEVKKPGASVKLSCKTSGFTFSSSYINWLRQAPGQSLEWIAWIFAGTGGTYYNQKFTGRAQLTVDTSASTAYMELSSLRSEDTAIYYCARHSPRATLFDFWGQGTTLTVSS
VL: EIVLTQSPATLSLSPGERATMSCRASSSVNHMHWYQQKPGFSPRAWIYATSNLASGIPARFSGSGSGTSFTLTISSLEPEDFATYYCQQWSSNPYTFGGGTKLEIK
notes: humanized
B9: 1C4-H4K1-IgG4 (antibody, V domains shown)
VH: QGQMVQSGAEVKKPGASVKLSCKTSGFTFSSSYINWLRQAPGQSLEWIAWIFAGTGGTYYNQKFTGRAQLTVDTSASTAYMELSSLRSEDTAIYYCARHSPRATLFDFWGQGTTLTVSS
VL: EIVLTQSPATLSLSPGERATLSCRASSSVNHMHWYQQKPGQAPRALIYATSNLASGIPARFSGSGSGTSFTLTISSLEPEDFAVYYCQQWSSNPYTFGGGTKLEIK
notes: humanized
B10: 1C4-H3K2-IgG4 (antibody, V domains shown)
VH: QVQMVQSGAEVKKPGASVKLSCKASGFTFSSSYINWLRQAPGQSLEWIGWIFAGTGGTYYNQKFTGRAQITRDTSASTAYMELSSLRSEDTAIYYCARHSPRATLFDFWGQGTTLTVSS
VL: EIVLTQSPATLSLSPGERATLSCRASSSVNHMHWYQQKPGQAPRALIYATSNLASGIPARFSGSGSGTSFTLTISSLEPEDFATYYCQQWSSNPYTFGGGTKLEIK
notes: humanized
B11: 1C4-H1K3-IgG4 (antibody, V domains shown)
VH: QVQMVQSGAEVKKPGASVKLSCKASGFTFSSSYINWLRQAPGQRLEWMGWIFAGTGGTYYNQKFTGRVTITRDTSASTAYMELSSLRSEDTAIYYCARHSPRATLFDFWGQGTTLTVSS
VL: EIVLTQSPATLSLSPGERATMSCRASSSVNHMHWYQQKPGFSPRAWIYATSNLASGIPARFSGSGSGTSFTLTISSLEPEDFATYYCQQWSSNPYTFGGGTKLEIK
notes: humanized
B12: 1C4-H2K4-IgG4 (antibody, V domains shown)
VH: QVQMVQSGAEVKKPGASVKLSCKASGFTFSSSYINWLRQAPGQSLEWIGWIFAGTGGTYYNQKFTGRVQITRDTSASTAYMELSSLRSEDTAIYYCARHSPRATLFDFWGQGTTLTVSS
VL: EIVLTQSPATLSASPGERVTMSCRASSSVNHMHWYQQRPGFSPRAWIYATSNLASGIPARFSGSGSGTSYSLTISSLEPEDFATYYCQQWSSNPYTFGGGTKLEIK
notes: humanized
B13: 1C4-H3K4-IgG4 (antibody, V domains shown)
VH: QVQMVQSGAEVKKPGASVKLSCKASGFTFSSSYINWLRQAPGQSLEWIGWIFAGTGGTYYNQKFTGRAQITRDTSASTAYMELSSLRSEDTAIYYCARHSPRATLFDFWGQGTTLTVSS
VL: EIVLTQSPATLSASPGERVTMSCRASSSVNHMHWYQQRPGFSPRAWIYATSNLASGIPARFSGSGSGTSYSLTISSLEPEDFATYYCQQWSSNPYTFGGGTKLEIK
notes: humanized
B14: 5F9-H2K2-IgG4 (antibody, V domains shown)
VH: QVQLKESGPGLVKPSETLSLTCTVSGFSLTTYDISWVRQPPGKGLEWLGVIWTGGGTNYNSSFMSRVTISKDTSKNQVSLKLSSVTAADTAIYYCERVDYWGQGTTVTVSS
VL: DVVMTQSPLSLPVTLGQPASISCRSSQSLVHSNGNTYLHWFQQRPGQSPKLLIYKVSNRFSGVPDRFSGSGSGTAFTFKISRVEAEDVGVYYCSQNTHVPWTFGGGTKVEIK
notes: humanized
B15: 5F9-H1K2-IgG4 (antibody, V domains shown)
VH: QVQLQESGPGLVKPSETLSLTCTVSGFSLTTYDISWVRQPPGKGLEWIGVIWTGGGTNYNSSFMSRVTISKDTSKNQVSLKLSSVTAADTAVYYCERVDYWGQGTTVTVSS
VL: DVVMTQSPLSLPVTLGQPASISCRSSQSLVHSNGNTYLHWFQQRPGQSPKLLIYKVSNRFSGVPDRFSGSGSGTAFTFKISRVEAEDVGVYYCSQNTHVPWTFGGGTKVEIK
notes: humanized; also called 30-5F9-H1K2-IgG4
B16: 5F9-H1K3-IgG4 (antibody, V domains shown)
VH: QVQLQESGPGLVKPSETLSLTCTVSGFSLTTYDISWVRQPPGKGLEWIGVIWTGGGTNYNSSFMSRVTISKDTSKNQVSLKLSSVTAADTAVYYCERVDYWGQGTTVTVSS
VL: DVVMTQSPLSLPVTLGQPASISCRSSQSLVHSNGNTYLHWYQQRPGQSPKLLIYKVSNRFSGVPDRFSGSGSGTAFTFKISRVEAEDVGVYYCSQNTHVPWTFGGGTKLEIK
notes: humanized
B17: 5F9-H1K1-IgG4 (antibody, V domains shown)
VH: QVQLQESGPGLVKPSETLSLTCTVSGFSLTTYDISWVRQPPGKGLEWIGVIWTGGGTNYNSSFMSRVTISKDTSKNQVSLKLSSVTAADTAVYYCERVDYWGQGTTVTVSS
VL: DVVMTQSPLSLPVTLGQPASISCRSSQSLVHSNGNTYLHWFQQRPGQSPRLLIYKVSNRFSGVPDRFSGSGSGTAFTFKISRVEAEDVGVYYCSQNTHVPWTFGGGTKVEIK
notes: humanized
B18: 5F9-H1K4-IgG4 (antibody, V domains shown)
VH: QVQLQESGPGLVKPSETLSLTCTVSGFSLTTYDISWVRQPPGKGLEWIGVIWTGGGTNYNSSFMSRVTISKDTSKNQVSLKLSSVTAADTAVYYCERVDYWGQGTTVTVSS
VL: DVVMTQSPLSLPVTLGDPASISCRSSQSLVHSNGNTYLHWYLQRPGQSPKLLIYKVSNRFSGVPDRFSGSGSGTAFTFKISRVEAEDVGVYYCSQNTHVPWTFGGGTKLEIK
notes: humanized

The target in the experiment is T1, Histidine-tagged human 4-1BB protein (h4-1BB-His) (human, UniProt Q07011 24-186).
T1 construct: not shown: histidine tag
The experiment is described as follows: SPR (Biacore T200), antibody on Protein A chip, h4-1BB-His injected.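 Further: dissociation phase followed for 300 s, Kd derived as koff divided by kon from the kinetic fit.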 On the technique in general: In SPR one partner is held on a chip, and binding of the other changes the refractive index at the surface.
Usually Kd stands for the equilibrium constant for the complex coming apart. High values mean weaker binding, low ones tighter binding. A word on the koff: it is a measure of how fast the partners let go of each other. A higher koff goes with a short-lived complex. Broadly, the kon is the rate constant with which the complex forms. A lower kon goes with slower complex formation. As for B1, the Kd worked out at 22 nM, the koff worked out at 0.000605 s⁻¹ and the on-rate (kon) was found to be 27500 M⁻¹ s⁻¹.

B2 showed a Kd of 25.1 nM, a koff of 0.000646 s⁻¹ and an on-rate constant (kon) of 25800 M⁻¹ s⁻¹.

B3 yielded a dissociation constant (Kd) of 17.1 nM, an off-rate constant (koff) of 0.000533 s⁻¹ and a kon of 31200 M⁻¹ s⁻¹.

On to B4, for which the Kd was determined as 19.3 nM, the koff turned out to be 0.00056 s⁻¹ and the association rate constant (kon) came to 29000 M⁻¹ s⁻¹.

With B5, the equilibrium dissociation constant (Kd) stood at 19.4 nM, the off-rate constant (koff) came to 0.000502 s⁻¹ and the kon was found to be 25900 M⁻¹ s⁻¹.

With B6, the Kd worked out at 23.9 nM, the koff stood at 0.000614 s⁻¹ and the kon was 25700 M⁻¹ s⁻¹.

Regarding B7, the dissociation constant Kd was found to be 16.6 nM, the koff worked out at 0.00049 s⁻¹ and the on-rate (kon) is 29600 M⁻¹ s⁻¹.

B8 displayed an equilibrium dissociation constant (Kd) of 16.9 nM, a koff of 0.000556 s⁻¹ and a kon of 32900 M⁻¹ s⁻¹.

With B9, the dissociation constant Kd amounted to 18.2 nM, the dissociation rate constant (koff) stood at 0.000516 s⁻¹ and the kon came to 28400 M⁻¹ s⁻¹.

Turning to B10, the Kd is 16.3 nM, the off-rate (koff) was 0.000453 s⁻¹ and the kon was 27700 M⁻¹ s⁻¹.

In turn, B11 yielded a dissociation constant (Kd) of 21.8 nM, a koff of 0.000623 s⁻¹ and a kon of 28500 M⁻¹ s⁻¹.

Regarding B12, the dissociation constant Kd came to 20.7 nM, the koff was 0.000521 s⁻¹ and the kon came out at 25200 M⁻¹ s⁻¹.

With B13, the Kd was 15.9 nM, the off-rate constant (koff) is 0.000476 s⁻¹ and the kon was found to be 30000 M⁻¹ s⁻¹.

In turn, B14 gave an equilibrium dissociation constant (Kd) of 13.4 nM, an off-rate constant (koff) of 0.00261 s⁻¹ and a kon of 194000 M⁻¹ s⁻¹.

In the case of B15, the equilibrium dissociation constant (Kd) was 12 nM, the koff amounted to 0.00247 s⁻¹ and the kon came out at 205000 M⁻¹ s⁻¹.

Consider B16, for which the dissociation constant Kd is 10.1 nM, the koff is 0.00208 s⁻¹ and the on-rate constant (kon) is 206000 M⁻¹ s⁻¹.

Take B17: the dissociation constant (Kd) is 11.4 nM, the dissociation rate constant (koff) worked out at 0.00253 s⁻¹ and the kon amounted to 222000 M⁻¹ s⁻¹.

Turning to B18, the dissociation constant (Kd) worked out at 9.95 nM, the koff was 0.00244 s⁻¹ and the kon is 246000 M⁻¹ s⁻¹.
